From US20240218057A1 (ROCKEFELLER UNIVERSITY, published 2024)
Positions count from the first letter of the chain named.

B1: C1000 (antibody, V domains shown)
VH: QVQLQESGPGLVKPSQTLSLSCTVSGGSISSDDYYWSWIRQPPGKGLEWIGYIYYSGSTYYNSSLKSRVSISVDTSKNQFSLKLSSVTAADTAVYYCARWKRWLQFLYFDYWGQGTLVTVSS
VL: QSALTQPRSVSGSPGQSVTISCTGTSSDVGGYSFVSWYQQHPGKAPKVLIYDVDKRPSGVPDRLSGSKSGNTASLTISGLQAEDEADYYCCSYAGSYTLIFGGGTKLTVL
B2: C987 (antibody, V domains shown)
VH: QVQLQESGPGLVKPSETLSLTCNVSGDIINKYYWSWIRQSPGKGLEWIGYIYYSGTTYYNPSLKSRVTMSVGTSKQQFSLRLTSVTAADTAVYYCARMLSTEWSFNWFDPWGPGTLVTVSS
VL: SYELTQPPSVSVSPGQAASITCSGDKLGDKFACWYQQKPGQSPVLVIYQNDKRPTGIPERFSGSNSGNTATLTISGTQAMDEADYFCQAWDSTSASVFGTGTKVTVL
B3: C998 (antibody, V domains shown)
VH: QVQLVQSGAEVKKPGASVKVSCKTSGYTFISYYIHWVRQAPGQGLEWMGIINPDGDNTNYAQKFQGRVTMTRDTSTSTVYMELSSLRFEDTAVYYCARGGAIPALRTAFDIWGQGTMVTVSS
VL: DIQMTQSPSTLSASVGDRVTITCRASQSISNWLAWYQQKPGKAPKLLIYKASSLESGVPSRFSGSGSGTEFTLTISSLQPDDFATYYCQEYNSYYFGQGTKLEIK
B4: C999 (antibody, V domains shown)
VH: QVQLVQSGAEVRRPGASVKVSCKASGYTLTHYYIHWVRQAPGQGLEWVGIINPDGDNTNYAQKFQGRVTMTRDTSTSTVYMELSSLRSEDTAIFYCARGGAIPALRSAFDIWGQGTMVTVSS
VL: B3 VL with S30N, S53T, E90Q, Y95F
B5: C1002 (antibody, V domains shown)
VH: EVQLVESGGGLVQPGGSLRLSCAASEFIVSSNYMTWVRQAPGKGLEWVSIMYPGGSTFYADSVKGRFTISRDNSKNTLYLQINRLRAEDTAVYYCARDIAGRLDYWGQGTLVTVSS
VL: DIQMTQSPSSLSASVGDRVTITCQASQDINNYLNWYQQKPGKAPKLLIYDASNLETGVPSRFSGSGSGTDFSFTISSLQPEDIATYYCQQYDNLSRLTFGGGTKVEIK
B6: C997 (antibody, V domains shown)
VH: EVQLLESGGGLVQPGGSLRLSCAASGFTFSKDAMSWVRQAPGKGLEWVSTVTGSGTNTYYADSVKGRFTISRDNSNNTLYLQMNSLRAEDTAVYYCANHPLGAAEGYYYYYMDVWGKGTTVTVSS
VL: EIVLTQSPGTLSLSPGERGTLSCRASQRVPSSQLAWYQQKSGQAPRLLIYGASSRASGIPDRFSGSGSGTDFTLNISRLEPEDFAVYYCQQYGSLRALTFGGGTKVEIK
B7: C994 (antibody, V domains shown)
VH: QVQLQESGPGLVKPSGTLSLTCAVSGVSISNTNWWNWVRQPPGKGLEWIGEIYHTGSARYNPSLRSRVTISVDKSKNQFSLRLNSATAADTAIYYCARAQTPEFGELLYWGQGALVTVSS
VL: DIQMTQSPSSLSASVGDRVTITCRASQSITDHLNWYQQKPGKAPKLLIYAASSLQTGVPSRFSGSGSETDFTLTISTLQPEDFATYYCQQSYGPPTYSFGQGTKLEIK
B8: C1001 (antibody, V domains shown)
VH: QVQLQESGPGLVKPSQTLSLTCTVSGGSISSGDYYWTWIRQPPGKGLEWIGYIFYSGITYYSPSLKSRLTMSIDTSKSQFSLNLSSVTAADTAVYYCARWKRLLQSLHFDYWGQGILVTVSS
VL: QSALTQPRSVSGSPGQSVTISCTGTSSDVGSYDYVSWYQQHPGKAPKVMIYGVDERPSGVPHRFSGSKSGNTASLTISGLQADDEADYFCCFYAGSYTLLFGGGTKVTVL
B9: C996 (antibody, V domains shown)
VH: EVQLVESGGGLVQPGGSLRLSCVASGFTSTNYDMHWVRQAPGRGLQWVSSIGTAGDTYYPGSVRGRFTISRENAKNSLDLQMNSLRVGDTAVYYCARGQRGYYDRSGYYWGWRAFDIWGQGTMVTVSS
VL: SYELTQPPSVSVAPGQTARITCGGNNIGNKSVYWYQQKPGQAPVLVVYDDSGRPSGIPERFSGSNSANTATLTISRVEAGDEADYYCQVWDNNSDQFGGGTKLTVL
B10: C992 (antibody, V domains shown)
VH: QVQLQESGPGLVKPSQTLSLTCTVSGGSISNGGYFWTWIRQHPVKGLEWIGYIYYSGSPHYNPSLKSRLSISLDTFKNQFSLNLSSVTAADTAVYYCARGDTFGRGYYFDFWGQGTLVTVSS
VL: SYELTQPPSVSVAPGQTARITCGGNNIGTNSMHWYQQKPGQAPVLVVFDDSDRPSGIPERFSGSNSGNTATLTISRVEAGDEADYHCQVWDRSSDRPWVFGGGTKLTVL
B11: C990 (antibody, V domains shown)
VH: EVQLVESGGGLVRPGGSLRLSCAASGFTVGSNFMSWVRQAPGKGLEWVSLIYSGGGTHYAESVKGRFTISRDKSKNTLYLQMNSLRAEDTAVYYCANQGYYYYMDVWGKGTTVTVS
VL: QSALTQPASVSGSPGQSITISCTGTSSDVGAYNYVSWHQHHPGKAPKLIIYDVSNRPSGVSNRFSGSKSGNTASLTISGLQAEDEADYYCTSYTNTTTPWVFGGGTKLTVL
B12: C993 (antibody, V domains shown)
VH: EVQLLESGGGLVQPGGSLRLSCAASGFPFSIYAMSWVRQAPGKGLEWVSGMRGTTGTTYYADSVKGRFAISRDNSKNMLHLQMNSLRAEDTAVYYCAKSDHGDYVIGAFDIWGQGTMVTVSS
VL: QSALTQPPSASGSPGQSVTISCTGTSGDVGGYNYVSWYQQHPGKAPKLMIYEVSKRPSGVPDRFSGSKSGNTASLTVSGLQAEDEADYYCNSYAGSNNWVFGGGTKLTVL
B13: C1003 (antibody, V domains shown)
VH: QVQLVESGGGVVQPGRSLRLSCAASGFAFSSYGMNWVRQAPGKGLEWVTTVSSDGNVNYYIDSVKGRFTISRDNSKNTLYLQMNSLRGDDTAVYYCAKGPRFGWSYRGGSGFDIWGQGTMVTVSS
VL: DIQMTQSPSSLSASVGDRVTITCQASQDISNYLNWYQQKPGKAPKLLIYDASNLETGVPSRFSGSGSGTDFTFTITSLQPEDIATYYCQQYDNLPITFGQGTRLEIK
B14: C995 (antibody, V domains shown)
VH: EVQLVESGGGLIQPGRSLRLSCTASGFSVGDYAMSWFRQAPGKGLEWVGFLRNQHYGGTAEYAASVKGRFSISTDASKNIVYLQMDSLKTEDTAVYYCARNDRYIVIVPAEMLYWGQGTLVTVSS
VL: EIVMTQSPATLSVSPGERATLSCRATESVYSNLAWYQQKPGQAPRLLMYDASTRAPGIPARFSGSGSGTEFTLTISSLQSEDFATYYCQQYSNWPPITFGQGTRLEIK
B15: C1006 (antibody, V domains shown)
VH: QVQLVQSGAEVRKPGSSVKVSCKASGGPFDQYTFSWVRQAPGQGLEWMARITPVVDLTNYAQKFQGRITIITDKSTSTAYMELSSLRSEDTAIYYCATPLNDYYASGNLGLWGQGTLVTVSS
VL: DIQMTQSPSSLSASIGDRVTITCRASQGISYYLAWFQQKPGEAPRSLIYDASSLQSGVPSKFSGSGSGTDFTLTISSLQPEDSATYYCQQYNSYPLTFGGGTKVEIK
B16: C1007 (antibody, V domains shown)
VH: QVQLVQSGSEMKKPGSSVKVSCKAAGGTLNTHTFSWVRQAPGQGLEWMGRITPTVDLTNYAQKFQGRITITADTSTNTAYLELRRLRSEDTAIYYCATPLNDYYASGNLGLWGQGTLVTVSS
VL: B15 VL with R18T, Q38R, E42K, R45K, N92S, S93T

What follows are binders tested against T1, SARS-COV-2 RBD (SARS-COV-2, UniProt P0DTC2 319-539) (assay: ELISA, RBD coated on plate).
T1 construct: also called WT RBD
B1 gave an EC50 of 3.2 ng/mL. For B2, the EC50 was 3.11 ng/mL. In the case of B3, the EC50 is reported as 2.51 ng/mL. Binder B4 has an EC50 of 2.68 ng/mL. B5 was tested, and the EC50 was 0.83 ng/mL. Binder B6 has an EC50 of 3.49 ng/mL. Work on B7 yielded an EC50 of 2.09 ng/mL. Binder B8 has an EC50 of 3.23 ng/mL. Work on B9 yielded an EC50 of 3.07 ng/mL. Work on B10 yielded an EC50 of 3.24 ng/mL. With B11 the EC50 was 1.85 ng/mL. B12 showed an EC50 of 2.29 ng/mL. B13 showed an EC50 of 1.82 ng/mL. B14 showed an EC50 of 3.79 ng/mL. B15 was tested, and the EC50 was 2.04 ng/mL. For B16, the EC50 was 3.22 ng/mL.
